± gives the uncertainty stated by the source.
Test: self-splicing fitness, log relative to wild type (ln ratio); higher = more splicing; Tetrahymena group I intron in knt gene, E. coli kanamycin selection, DiMSum; sequences stand for … in CUCUCU…GGAGGGAAAAGUUAUCAGGCAUGCACCUGGUAGCUAGUCUUUAAACCAAUAGAUUGCAUCGGUUUAAAAGGCAAGACCGUCAAAUUGCGGGAAAGGGGUCAACAGCCGUUCAGUACCAAGUCUCAGGGGAAACUUUGAGAUGGCCUUGCAAAGGGUAUGGUAAUAAGCUGACGGACAUGGUCCUAACCACGCAGCCAAGUCCUAAGUCAACAGAUCUUCUGUUGAUAUGGAUGCAGUUCACAGACUAAAUGUCGGUCGGGGAAGAUGUAUUCUUCUCAUAAGAUAUAGUCGGACCUCUCCUUAAUGGGAGCUAGCGGAUGAAGUGAUGCAACACUGGAGCCGCUGGGAACUAAUUUGUAUGCGAAAGUAUAUUGAUUAGUUUUGGAGUACUCGUGGUCG
Method in brief: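 The eight P1ex-region nucleotides of an intron in the knt kanamycin-resistance gene on pET-22b(+) were all randomised and the library put into E. coli BL21(DE3). Six replicate transformations were grown overnight at 37°C or 30°C on LB agar with or without 25 μg/mL kanamycin, together with 100 μg/mL carbenicillin, 50 μM IPTG and 0.2% rhamnose. Colonies were pooled and amplicon-sequenced on an Illumina HiSeq 2500. Fitness from DiMSum is the error-weighted combination of wild-type-normalised replicate fold changes, kanamycin over none.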

Row | Sequence | self-splicing fitness (ln) (30 °C) | self-splicing fitness (ln) (37 °C)
1 | AGCCAGCAAUAUUACGGUGG | -4.22 ± 0.19 | -2.17 ± 0.17
2 | AGCCAGCAAUAUUACGUAUC | -2.85 ± 0.15 | -2.21 ± 0.23
3 | AGCCAGCAAUAUUACGUCUC | -3.95 ± 0.37 | -2.78 ± 0.27
4 | AGCCAGCAAUAUUACGUGGC | -3.74 ± 0.19 | -3.57 ± 0.29
5 | AGCCAGCAAUAUUACGUUAU | -3.94 ± 0.19 | -1.75 ± 0.12
6 | AGCCAGCAAUAUUACGUUCC | -2.02 ± 0.17 | -2.04 ± 0.28
7 | AGCCAGCAAUAUUACGUUCU | -0.687 ± 0.053 | -0.266 ± 0.068
8 | AGCGAGCAAUAUUACGAAUG | -3.8 ± 0.43 | -2.2 ± 0.42
9 | AGCGAGCAAUAUUACGACUU | -0.736 ± 0.078 | 0.37 ± 0.1
10 | AGCGAGCAAUAUUACGAGGG | -2.74 ± 0.3 | -1.19 ± 0.35
11 | AGCGAGCAAUAUUACGAGUG | -2.92 ± 0.25 | -2.12 ± 0.26
12 | AGCGAGCAAUAUUACGAUGC | -3.11 ± 0.45 | 
13 | AGCGAGCAAUAUUACGCAGU | -4.48 ± 0.28 | -2.78 ± 0.25
14 | AGCGAGCAAUAUUACGCCGA |  | -0.607 ± 0.36
15 | AGCGAGCAAUAUUACGCCUG | -3.09 ± 0.3 | -2.24 ± 0.36
16 | AGCGAGCAAUAUUACGCUGA | -3.2 ± 0.18 | -2.51 ± 0.18
17 | AGCGAGCAAUAUUACGCUGC | -1.51 ± 0.39 | -2.23 ± 0.42
18 | AGCGAGCAAUAUUACGGAAU | -2.56 ± 0.26 | -2.66 ± 0.38
19 | AGCGAGCAAUAUUACGGACU | -1.24 ± 0.15 | 0.232 ± 0.16
20 | AGCGAGCAAUAUUACGGAUC | -3.42 ± 0.33 | -1.44 ± 0.49
21 | AGCGAGCAAUAUUACGGCAG | -1.87 ± 0.14 | -1.07 ± 0.23
22 | AGCGAGCAAUAUUACGGGUG | -2.75 ± 0.24 | -1.21 ± 0.21
23 | AGCGAGCAAUAUUACGGUAA | -2.45 ± 0.27 | -2.49 ± 0.24
24 | AGCGAGCAAUAUUACGGUCC | -0.807 ± 0.14 | -0.398 ± 0.18
25 | AGCGAGCAAUAUUACGGUGC | -4.03 ± 0.28 | -2.97 ± 0.24
26 | AGCGAGCAAUAUUACGUACA | -2.08 ± 0.31 | -1.89 ± 0.2

Row | Sequence | self-splicing fitness (ln) (30 °C) | self-splicing fitness (ln) (37 °C)
27 | AGCGAGCAAUAUUACGUAUG | -3.68 ± 0.35 | -3.3 ± 0.32
28 | AGCGAGCAAUAUUACGUCCU | -0.026 ± 0.17 | -0.661 ± 0.18
29 | AGCGAGCAAUAUUACGUGCG | -2.67 ± 0.094 | -0.964 ± 0.098
30 | AGCUAGCAAUAUUACGAAGA | -2.45 ± 0.24 | -2.86 ± 0.18
31 | AGCUAGCAAUAUUACGAUAG | -3.51 ± 0.2 | -2.84 ± 0.23
32 | AGCUAGCAAUAUUACGAUCA | -2.01 ± 0.12 | -0.168 ± 0.11
33 | AGCUAGCAAUAUUACGAUUA | -2.31 ± 0.21 | -0.806 ± 0.14
34 | AGCUAGCAAUAUUACGCCAU | -1.92 ± 0.31 | -1.91 ± 0.43
35 | AGCUAGCAAUAUUACGCUAC | -2.68 ± 0.48 | -2.77 ± 0.38
36 | AGCUAGCAAUAUUACGCUGC | -3.59 ± 0.48 | 
37 | AGCUAGCAAUAUUACGGACA | -1.06 ± 0.12 | 0.0203 ± 0.15
38 | AGCUAGCAAUAUUACGGAGC | -2.44 ± 0.17 | -1.46 ± 0.23
39 | AGCUAGCAAUAUUACGGAUA | -2.55 ± 0.17 | -1.87 ± 0.14
40 | AGCUAGCAAUAUUACGGCCU | -0.139 ± 0.073 | -0.106 ± 0.091
41 | AGCUAGCAAUAUUACGGGUA | -1.27 ± 0.073 | -0.597 ± 0.082
42 | AGCUAGCAAUAUUACGGGUU | -2.74 ± 0.14 | -2.12 ± 0.18
43 | AGCUAGCAAUAUUACGUAAA | -3.11 ± 0.19 | -1.14 ± 0.16
44 | AGCUAGCAAUAUUACGUUGA | -2.68 ± 0.23 | -1.69 ± 0.16
45 | AGGAAGCAAUAUUACGAACG | -1.19 ± 0.14 | -0.0957 ± 0.18
46 | AGGAAGCAAUAUUACGACCU | -2.74 ± 0.22 | -2.29 ± 0.21
47 | AGGAAGCAAUAUUACGAGUA | -2.59 ± 0.15 | -2.21 ± 0.17
48 | AGGAAGCAAUAUUACGAUAC | -3.27 ± 0.26 | -2.02 ± 0.2
49 | AGGAAGCAAUAUUACGAUCU | -0.809 ± 0.085 | -0.905 ± 0.11
50 | AGGAAGCAAUAUUACGCGGG | -1.85 ± 0.18 | -1.67 ± 0.14
51 | AGGAAGCAAUAUUACGCUAG | -2.44 ± 0.42 | 
52 | AGGAAGCAAUAUUACGCUUA | -2.41 ± 0.2 | -0.908 ± 0.17

Row | Sequence | self-splicing fitness (ln) (30 °C) | self-splicing fitness (ln) (37 °C)
53 | AGGAAGCAAUAUUACGGAAG | -2.98 ± 0.25 | -2.28 ± 0.39
54 | AGGAAGCAAUAUUACGGAGU | -2.89 ± 0.17 | -1.7 ± 0.22
55 | AGGAAGCAAUAUUACGGAUU | -2.3 ± 0.12 | -1.55 ± 0.14
56 | AGGAAGCAAUAUUACGGCCA | -0.118 ± 0.14 | 0.223 ± 0.19
57 | AGGAAGCAAUAUUACGGCGC | -0.231 ± 0.11 | -0.104 ± 0.15
58 | AGGAAGCAAUAUUACGGGGG |  | -1.89 ± 0.36
59 | AGGAAGCAAUAUUACGGUGU | -3.33 ± 0.16 | -1.48 ± 0.1
60 | AGGAAGCAAUAUUACGUACG | -1.15 ± 0.11 | -0.064 ± 0.1
61 | AGGAAGCAAUAUUACGUAGG | -3 ± 0.15 | -2.3 ± 0.23
62 | AGGAAGCAAUAUUACGUUGA |  | -1.63 ± 0.46
63 | AGGAAGCAAUAUUACGUUUU | -4.64 ± 0.31 | -1.82 ± 0.23
64 | AGGCAGCAAUAUUACGAAAU | -1.8 ± 0.13 | -1.34 ± 0.15
65 | AGGCAGCAAUAUUACGAACG | -1.11 ± 0.14 | 0.48 ± 0.16
66 | AGGCAGCAAUAUUACGACCA | -0.404 ± 0.11 | 0.544 ± 0.17
67 | AGGCAGCAAUAUUACGACGC | -0.638 ± 0.12 | -0.663 ± 0.14
68 | AGGCAGCAAUAUUACGACUC | -1.65 ± 0.14 | -1.01 ± 0.19
69 | AGGCAGCAAUAUUACGAGAG | -3.49 ± 0.15 | -2.79 ± 0.15
70 | AGGCAGCAAUAUUACGCACU | -1.3 ± 0.11 | -0.863 ± 0.17
71 | AGGCAGCAAUAUUACGCCUU |  | -3.04 ± 0.27
72 | AGGCAGCAAUAUUACGCGCA | -0.635 ± 0.07 | -0.0389 ± 0.098
73 | AGGCAGCAAUAUUACGCGGG | -2.65 ± 0.14 | -2.55 ± 0.17
74 | AGGCAGCAAUAUUACGCGUA | -0.695 ± 0.09 | -0.127 ± 0.095
75 | AGGCAGCAAUAUUACGCUAA | -1.05 ± 0.097 | -0.682 ± 0.11
76 | AGGCAGCAAUAUUACGCUGA | -2.21 ± 0.13 | -1.84 ± 0.21
77 | AGGCAGCAAUAUUACGGCCA | -1.07 ± 0.15 | -0.0424 ± 0.21
78 | AGGCAGCAAUAUUACGGGCA | -1.39 ± 0.2 | -0.422 ± 0.17
